The results in this text go back to the MegaScale stability set (Tsuboyama et al. 2023).

Sequences and labels used below:
B1: r4_43_TrROS_Hall (parent)
chain: DLVTIKVPLENLEEIKKAAEKAGFKIVSISYDKENKEVTIVIEKKK
B2: 6YSE (parent)
chain: HERALMVNRLQKLTRMLRVHPDPKWKQEQQELIKRLK

In one data set the parent is B1. Description: folding stability dG (cDNA display proteolysis); higher = more stable. Conditions: PBS, room temperature.
With DEVTIKVPLENLEEIKKAAEKAGFKIVSISYDKENKEVTIVIEKKK [L2E], the “folding stability dG” value came out at 3.45 kcal/mol.
Still for that read-out and setting: under DFVTIKVPLENLEEIKKAAEKAGFKIVSISYDKENKEVTIVIEKKK [L2F] stands 3.76 kcal/mol; under DAVTIKVPLENLEEIKKAAEKAGFKIVSISYDKENKEVTIVIEKKK [L2A], 3.4 kcal/mol.
The same measure, in the same setting: under DCVTIKVPLENLEEIKKAAEKAGFKIVSISYDKENKEVTIVIEKKK [L2C] stands 3.41 kcal/mol.
The same measure, in the same setting: as for DDVTIKVPLENLEEIKKAAEKAGFKIVSISYDKENKEVTIVIEKKK [L2D], the figure is 3.35 kcal/mol.
As to KLVTIKVPLENLEEIKKAAEKAGFKIVSISYDKENKEVTIVIEKKK [D1K], the “folding stability dG” value amounted to 3.81 kcal/mol.
Still for that read-out and setting: under QLVTIKVPLENLEEIKKAAEKAGFKIVSISYDKENKEVTIVIEKKK [D1Q] stands 3.82 kcal/mol.
As for MLVTIKVPLENLEEIKKAAEKAGFKIVSISYDKENKEVTIVIEKKK [D1M], the “folding stability dG” value was 4.1 kcal/mol.
Regarding WLVTIKVPLENLEEIKKAAEKAGFKIVSISYDKENKEVTIVIEKKK [D1W], the “folding stability dG” value turned out to be 4.07 kcal/mol.
On the same count and under the same terms, as for SLVTIKVPLENLEEIKKAAEKAGFKIVSISYDKENKEVTIVIEKKK [D1S], the figure is 3.84 kcal/mol; as for CLVTIKVPLENLEEIKKAAEKAGFKIVSISYDKENKEVTIVIEKKK [D1C], 3.7 kcal/mol; as for PLVTIKVPLENLEEIKKAAEKAGFKIVSISYDKENKEVTIVIEKKK [D1P], 3.56 kcal/mol.
For ELVTIKVPLENLEEIKKAAEKAGFKIVSISYDKENKEVTIVIEKKK [D1E], the “folding stability dG” value came to 3.66 kcal/mol.
As for ALVTIKVPLENLEEIKKAAEKAGFKIVSISYDKENKEVTIVIEKKK [D1A], the “folding stability dG” value came to 3.81 kcal/mol.
Turning to TLVTIKVPLENLEEIKKAAEKAGFKIVSISYDKENKEVTIVIEKKK [D1T], the “folding stability dG” value came to 3.83 kcal/mol.
For FLVTIKVPLENLEEIKKAAEKAGFKIVSISYDKENKEVTIVIEKKK [D1F], the “folding stability dG” value turned out to be 3.9 kcal/mol.
In the case of HLVTIKVPLENLEEIKKAAEKAGFKIVSISYDKENKEVTIVIEKKK [D1H], the “folding stability dG” value was determined as 3.83 kcal/mol.
As to GLVTIKVPLENLEEIKKAAEKAGFKIVSISYDKENKEVTIVIEKKK [D1G], the “folding stability dG” value amounted to 3.47 kcal/mol.
On the same count and under the same terms, as for VLVTIKVPLENLEEIKKAAEKAGFKIVSISYDKENKEVTIVIEKKK [D1V], the figure is 4 kcal/mol; as for ILVTIKVPLENLEEIKKAAEKAGFKIVSISYDKENKEVTIVIEKKK [D1I], 3.87 kcal/mol; as for RLVTIKVPLENLEEIKKAAEKAGFKIVSISYDKENKEVTIVIEKKK [D1R], 3.42 kcal/mol.
On the same count and under the same terms, as for LLVTIKVPLENLEEIKKAAEKAGFKIVSISYDKENKEVTIVIEKKK [D1L], the figure is 3.84 kcal/mol.
Same read-out and setting: under YLVTIKVPLENLEEIKKAAEKAGFKIVSISYDKENKEVTIVIEKKK [D1Y] stands 3.87 kcal/mol.
NLVTIKVPLENLEEIKKAAEKAGFKIVSISYDKENKEVTIVIEKKK [D1N]: the “folding stability dG” value was determined as 3.79 kcal/mol.

The variants in the next data set derive from B2. The data set is described as above. Conditions: PBS, room temperature.
For HERALMVNRLQKLTRMLRVHPDPKWKQEQQKLIKRLK [E31K], the “folding stability dG” value is 0.805 kcal/mol.
The same measure, in the same setting: as for HERALMVNRLQKLTRMLRVHPDPKWKQEQQYLIKRLK [E31Y], the figure is 1.1 kcal/mol; as for HERALMVNRLQKLTRMLRVHPDPKWKQEQQFLIKRLK [E31F], 1.01 kcal/mol.
On to HERALMVNRLQKLTRMLRVHPDPKWKQEQQMLIKRLK [E31M], for which the “folding stability dG” value is 1.45 kcal/mol.
On the same count and under the same terms, as for HERALMVNRLQKLTRMLRVHPDPKWKQEQQCLIKRLK [E31C], the figure is 1.69 kcal/mol.
Same read-out and setting: as for HERALMVNRLQKLTRMLRVHPDPKWKQEQQVLIKRLK [E31V], the figure is 0.669 kcal/mol; as for HERALMVNRLQKLTRMLRVHPDPKWKQEQQLLIKRLK [E31L], 1.08 kcal/mol; as for HERALMVNRLQKLTRMLRVHPDPKWKQEQQSLIKRLK [E31S], 0.996 kcal/mol.
The same measure, in the same setting: as for HERALMVNRLQKLTRMLRVHPDPKWKQEQQQLIKRLK [E31Q], the figure is 0.963 kcal/mol.
As to HERALMVNRLQKLTRMLRVHPDPKWKQEQQALIKRLK [E31A], the “folding stability dG” value is 1.2 kcal/mol.
Still for that read-out and setting: under HERALMVNRLQKLTRMLRVHPDPKWKQEQQTLIKRLK [E31T] stands 0.995 kcal/mol; under HERALMVNRLQKLTRMLRVHPDPKWKQEQQDLIKRLK [E31D], 1.38 kcal/mol; under HERALMVNRLQKLTRMLRVHPDPKWKQEQQILIKRLK [E31I], 1.14 kcal/mol.
Same read-out and setting: under HERALMVNRLQKLTRMLRVHPDPKWKQEQQGLIKRLK [E31G] stands 0.441 kcal/mol.
On the same count and under the same terms, as for HERALMVNRLQKLTRMLRVHPDPKWKQEQQHLIKRLK [E31H], the figure is 0.812 kcal/mol; as for HERALMVNRLQKLTRMLRVHPDPKWKQEQQRLIKRLK [E31R], 1.15 kcal/mol; as for HERALMVNRLQKLTRMLRVHPDPKWKQEQQNLIKRLK [E31N], 0.839 kcal/mol.
Regarding HERALMVNRLQKLTRMLRVHPDPKWKQEQQWLIKRLK [E31W], the “folding stability dG” value is 1.4 kcal/mol.
Same read-out and setting: as for HERALMVNRLQKLTRMLRVHPDPKWKQEQQELIKRYK [L36Y], the figure is -0.212 kcal/mol.
The same measure, in the same setting: under HERALMVNRLQKLTRMLRVHPDPKWKQEQQELIKRMK [L36M] stands 0.478 kcal/mol; under HERALMVNRLQKLTRMLRVHPDPKWKQEQQELIKRRK [L36R], -0.888 kcal/mol.
Still for that read-out and setting: as for HERALMVNRLQKLTRMLRVHPDPKWKQEQQELIKRWK [L36W], the figure is -0.411 kcal/mol; as for HERALMVNRLQKLTRMLRVHPDPKWKQEQQELIKRIK [L36I], 0.873 kcal/mol; as for HERALMVNRLQKLTRMLRVHPDPKWKQEQQELIKRFK [L36F], 0.524 kcal/mol.
Take HERALMVNRLQKLTRMLRVHPDPKWKQEQQELIKRLH [K37H]: the “folding stability dG” value worked out at 1.19 kcal/mol.
Same read-out and setting: under HERALMVNRLQKLTRMLRVHPDPKWKQEQQELIKRLR [K37R] stands 1.55 kcal/mol.
As to HERALMVNRLQKLTRMLRVHPDPKWKQEQQELIKRLN [K37N], the “folding stability dG” value came to 1.24 kcal/mol.
Same read-out and setting: as for HERALMVNRLQKLTRMLRVHPDPKWKQEQQELIKRLF [K37F], the figure is 1.68 kcal/mol; as for HERALMVNRLQKLTRMLRVHPDPKWKQEQQELIKRLW [K37W], 1.43 kcal/mol.
In the case of HERALMVNRLQKLTRMLRVHPDPKWKQEQQELIKRLI [K37I], the “folding stability dG” value was 1.08 kcal/mol.
Same read-out and setting: as for HERALMVNRLQKLTRMLRVHPDPKWKQEQQELIKRLD [K37D], the figure is 0.831 kcal/mol.
On the same count and under the same terms, under HERALMVNRLQKLTRMLRVHPDPKWKQEQQELIKRLQ [K37Q] stands 1.8 kcal/mol; under HERALMVNRLQKLTRMLRVHPDPKWKQEQQELIKRLG [K37G], 1.27 kcal/mol.
On the same count and under the same terms, under HERALMVNRLQKLTRMLRVHPDPKWKQEQQELIKRLV [K37V] stands 0.95 kcal/mol; under HERALMVNRLQKLTRMLRVHPDPKWKQEQQELIKRLE [K37E], 1.05 kcal/mol; under HERALMVNRLQKLTRMLRVHPDPKWKQEQQELIKRLM [K37M], 1.7 kcal/mol.
As to HERALMVNRLQKLTRMLRVHPDPKWKQEQQELIKRLS [K37S], the “folding stability dG” value was 1.19 kcal/mol.
Still for that read-out and setting: as for HERALMVNRLQKLTRMLRVHPDPKWKQEQQELIKRLY [K37Y], the figure is 1.74 kcal/mol; as for HERALMVNRLQKLTRMLRVHPDPKWKQEQQELIKRLL [K37L], 1.42 kcal/mol.
The same measure, in the same setting: under HERALMVNRLQKLTRMLRVHPDPKWKQEQQELIKRLT [K37T] stands 1.25 kcal/mol.
